From paper PMC8409790 (mAbs, 2021) come the findings set out here.

Sequences and labels used below:
B1: Human single-chain (sc) IL-23 (IL-12p40(23-328)-(GGGGS)x4-IL-23p19(21-189)-TEV-FLAG-8His) (ligand)
chain: IWELKKDVYVVELDWYPDAPGEMVVLTCDTPEEDGITWTLDQSSEVLGSGKTLTIQVKEFGDAGQYTCHKGGEVLSHSLLLLHKKEDGIWSTDILKDQKEPKNKTFLRCEAKNYSGRFTCWWLTTISTDLTFSVKSSRGSSDPQGVTCGAATLSAERVRGDNKEYEYSVECQEDSACPAAEESLPIEVMVDAVHKLKYENYTSSFFIRDIIKPDPPKNLQLKPLKNSRQVEVSWEYPDTWSTPHSYFSLTFCVQVQGKSKREKKDRVFTDKTSATVICRKNASISVRAQDRYYSSSWSEWASVPCSGGGGSGGGGSGGGGSGGGGSAVPGGSSPAWTQCQQLSQKLCTLAWSAHPLVGHMDLREEGDEETTNDVPHIQCGDGCDPQGLRDNSQFCLQRIHQGLIFYEKLLGSDIFTGEPSLLPDSPVGQLHASLLGLSQLLQPEGHHWETQQIPSLSPSQPWQRLLLRFKILRSLQAFVAVAARVFAHGAATLSP
B2: Human IL-23Rα protein (receptor)
chain: GITNINCSGHIWVEPATIFKMGMNISIYCQAAIKNCQPRKLHFYKNGIKERFQITRINKTTARLWYKNFLEPHASMYCTAECPKHFQETLICGKDISSGYPPDIPDEVTCVIYEYSGNMTCTWNAGKLTYIDTKYVVHVKSLETEEEQQYLTSSYINISTDSLQGGKKYLVWVQAANALGMEESKQLQIHLDDIVIPSAAVISRAETINATVPKTIIYWDSQTTIEKVSCEMRYKATTNQTWNVKEFDTNFTYVQQSEFYLEPNIKYVFQVRCQETGKRYWQPWSSLFFHKTPETVPQVTSKAFQHDTWNSGLTVASISTGHLTSDNRGDIG

Holding throughout (experiment): SPR
The assay “Human IL-23Rα protein” addresses B2.
The target of a further assay is Human IL-12Rβ1-Fc (human, UniProt P42701).
For assay [1], the target named is B1.

Usually Kd stands for the free concentration of one partner at which half of the binding sites on the other are occupied at equilibrium, for simple one-to-one binding. Low values mean a tighter complex, high ones a looser complex. Consider B1, for which the Kd with Human IL-23Rα protein came to 0.8 nM; with Human IL-12Rβ1-Fc, 19 nM. On to B2, for which, in assay [1], the “KD with a saturating amount of tildrakizumab bound to IL-23” value amounted to 190 nM.
